Laboratory results from the supplement of paper PMC12042874.
± gives the uncertainty stated by the source.

Experiment: amyloid nucleation score (Sup35N fusion, yeast selection) (log enrichment); library NNK3; higher = more nucleation; inactive = no reads after selection
In short: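 After 24 hours of induction with 100 μM copper sulfate, psi-negative yeast expressing peptides of 20 random codons fused to Sup35N were grown for 7 days at 30°C on medium lacking adenine and uracil. Input and output plasmid inserts were sequenced with Illumina, and sequences with under 100 input reads were discarded. Scores for nucleation are the DiMSum log enrichment of output over input reads, centred on the mode score of non-aggregating sequences.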

Substance | amyloid nucleation score
SDRIDNFAWINFCK | 0.831 ± 0.18
VSNMGSMIVVVSVRCYM | 1.45 ± 0.094
QNVGIVYRTST | -0.928 ± 2.5
DSYCGLRDEWITRWLGCRWM | inactive
YFVYEG | inactive
ELGMQSNGSSNDRLERRRIR | inactive
HDIDGCIVRKSLYNGRGPLL | inactive
DLRSITMCWCIIPTGRCVVA | inactive
MYFYYYGSRYYNNSDCLLSS | inactive
CQRPWNRTRR | inactive
RASKRLCWSG | inactive
TAFTMGV | inactive
YLVSIRNNYRCEV | inactive
PVVLLSWELMILLWVNSFAL | inactive
MTWNVGRADGFLRSSCSNFR | inactive
STGFGE | inactive
RCSVVTSFQGICMACKYAGG | 1.26 ± 0.1
NSSSNE | 1.01 ± 0.22
TQMILWVM | inactive
FVVELCVDPTFKLYD | inactive
VLWPADFGCPARVQESGSSQ | -0.387 ± 1.5
VLGCVGLCYHRYVNALGGAE | inactive
RYGVWLTCYVRAKLM | inactive

Substance | amyloid nucleation score
FYAYVSVDTVCSVAICLICT | inactive
VPKKEKWRFDIVL | inactive
ALFKTYHLKGMFGKNWVLVV | inactive
HIYIVKSVCILCIWPCGLTE | 2.86 ± 0.058
WCVMPFNSCTTLMYKFSEN | 1.66 ± 0.071
RFNHMRNGFWRSIS | inactive
VKNTGLSSNHLEH | 1.11 ± 0.13
IRGVECNRLGIYLLCVTHSM | -0.624 ± 0.8
WSCNN | inactive
LLSIRTSSCFCKRGSTKFED | 0.176 ± 0.33
MSLLS | inactive
IVGDGDGQTCCVSRSLCGMV | inactive
LCRFNLYYWLVFELACSRWN | inactive
GCGVC | -0.609 ± 0.98
GVNIRCLRDDDSRLLKERSC | inactive
TYFKSGRNILAHIYMWLILG | inactive
FVSSYNIENV | inactive
YKRLVSLNVEWALRK | inactive
RIYDYFLFSCYRV | inactive
YINQWCTCVT | inactive
IGGRTDNSELTCTRGMRFLC | inactive
FGTHFIESSNVNNNTPVVSP | inactive
VFVLCSSLYEGFTYYRWISF | inactive

Substance | amyloid nucleation score
RVYLRGRIDFKGTTFGGFEK | 1.63 ± 0.059
SRTFVRECKWGFVCRYKVWV | inactive
YINRKLRDACRRYVFGW | 0.05 ± 0.89
YFYFDFNYNMYGVKALLVLC | inactive
LLVGEIGYLEHTMHNCEVEG | inactive
MISLMTYSYSRYMYIVSPVP | inactive
YLIMSVSYSASTCLIKMAMV | inactive
SLAYCLLEWMES | -0.172 ± 0.48
SMCNTSLYWLDHGADLLRSL | inactive
INFCIINNTMV | 1.75 ± 0.071
TKWFCVFTLSRNINRFTRL | inactive
FRFWPFSPICNWY | inactive
SILYMVIASWYLY | inactive
SLYVSVLYIYRDY | 1.77 ± 0.077
TSQGIYHVVCCSSSEFRTLG | 2.48 ± 0.055
SEVFFGSVPNDARDKLNTNP | inactive
GCTFRNWIWWLHRFDKMR | 0.861 ± 0.15
VSVLRWLKRLDLHCGGV | inactive
MFFAGKTPGHVHVWNSANTR | inactive
TKYTNPHERSIEMSLFRERQ | inactive
QGVCWLVV | inactive
